{
  "source": "paper PMC3518142",
  "key": {"GnRHR-DesK191 (human) [1]": {"target": "GnRHR-DesK191 (human) (UniProt P30968)"}, "[2]": {"target": "Wild-type gonadotropin-releasing hormone receptor (human) (UniProt P30968)", "assay": "radioligand binding; transfected MDA-MB-231 cells in 24-well plates, 90 minutes at room temperature with [125I]-Buserelin in the presence or absence of excess (10 uM) unlabeled Buserelin; cells washed, solubilized and counted; relative affinities given as Ki"}, "GnRHR-DesK191 (human) [3]": {"target": "GnRHR-DesK191 (human) (UniProt P30968)", "assay": "radioligand binding; transfected MDA-MB-231 cells in 24-well plates, 90 minutes at room temperature with [125I]-Buserelin in the presence or absence of excess (10 uM) unlabeled Buserelin; cells washed, solubilized and counted; relative affinities given as Ki"}, "[4]": {"target": "endogenous GnRHR of MDA-MB-231 cells (human (endogenous in MDA-MB-231)) (UniProt P30968)", "assay": "radioligand binding; transfected MDA-MB-231 cells in 24-well plates, 90 minutes at room temperature with [125I]-Buserelin in the presence or absence of excess (10 uM) unlabeled Buserelin; cells washed, solubilized and counted; relative affinities given as Ki"}},
  "data": [
    {"substance": "Buserelin (peptide)", "values": [
      {"measurement": "Buserelin-stimulated inositol phosphate (IP) production in transfected MDA-MB-231 cells, relative to WT GnRHR (% of WT levels)", "setting": "GnRHR-DesK191 (human) [1]", "result": 590},
      {"measurement": "Ki", "setting": "[2]", "result": 500, "unit": "nM"},
      {"measurement": "Ki", "setting": "GnRHR-DesK191 (human) [3]", "result": 700, "unit": "nM"},
      {"measurement": "Ki", "setting": "[4]", "result": 1030, "unit": "nM"}
    ]},
    {"substance": "[125I]-Buserelin (peptide)", "values": [
      {"measurement": "[125I]-Buserelin binding, percent of WT levels (% of WT levels)", "setting": "GnRHR-DesK191 (human) [3]", "result": 139}
    ]}
  ]
}
